Results from US20170119913A1.

What was measured:
[1] = target: neurotensin receptor 1 (NTR1), human, prepared from CHO cells recombinantly expressing the human receptor (human) (UniProt P30989)
[2] = target: NTR1 on HT29 or NTR1-expressing HEK293 cells (UniProt P30989); assay: cell-based or functional assay
[3] = target: sst (non-selective), somatostatin receptor; assay: Cerep ExpresSProfile radioligand competition binding, reference compound (agonist radioligand)

Chain of NTR1 on HT29 or NTR1-expressing HEK293 cells (P30989 whole entry): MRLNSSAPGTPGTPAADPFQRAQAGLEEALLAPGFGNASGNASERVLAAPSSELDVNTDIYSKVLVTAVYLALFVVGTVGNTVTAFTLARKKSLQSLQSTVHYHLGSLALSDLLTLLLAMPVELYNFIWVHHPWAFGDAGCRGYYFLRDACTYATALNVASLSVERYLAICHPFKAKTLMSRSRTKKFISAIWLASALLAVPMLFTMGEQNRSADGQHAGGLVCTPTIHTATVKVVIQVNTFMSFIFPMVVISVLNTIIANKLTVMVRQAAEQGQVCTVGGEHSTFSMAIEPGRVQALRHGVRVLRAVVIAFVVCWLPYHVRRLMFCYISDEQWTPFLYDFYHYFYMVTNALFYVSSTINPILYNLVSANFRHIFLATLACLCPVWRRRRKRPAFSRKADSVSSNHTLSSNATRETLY
Chain of neurotensin receptor 1 (NTR1), human, prepared from CHO cells recombinantly expressing the human receptor (human) (P30989 whole entry): as above

Substance	IC50 [1] [nM]	Agonistic Effect EC50 [nM], functional Ca2+ mobilisation assay [2] [nM]	Antagonistic Effect IC50 [nM], functional Ca2+ mobilisation assay [2] [nM]	also measured
apamin (from UniProt P01500 28-45) (peptide)	–	–	–	Ki (SKCa channel): 0.0084 nM
1206-Glutar-Ttds-Lys(DOTA)-Ttds-GABA-Asn-Ala-Val-Pro-Asn-Leu-Arg-Gly-Asp-Leu-Gln-Val-Leu-Ala-Gln-Lys (peptide)	10	> 50000	18	–
alpha-dendrotoxin (from UniProt P00980 1-59) (peptide)	–	–	–	Ki (KV channel): 0.2 nM
somatostatin-14 (from UniProt P61278 103-116) (peptide)	–	–	–	Ki [3]: 0.11 nM
1206-Glutar-Ttds3-Asn-Ala-Val-Pro-Asn-Leu-Arg-Gly-Asp-Leu-Gln-Val-Leu-Ala-Gln-Lys-Val-Ala-Arg-Thr-GA (peptide)	9.9	> 50000	38	–
1206-Glutar-Ttds-Lys(1206-Glutar-Ttds)-Ttds-Asn-Ala-Val-Pro-Asn-Leu-Arg-Gly-Asp-Leu-Gln-Val-Leu-Ala- (peptide)	7.5	> 50000	12	–
